Laboratory results published in article PMC4276739 (2015).
Values belong to the molecule of their own block, whether it stands above or below them.

Legend:
[1] = biological target: ActRII ECD (Homo sapiens) (UniProt P27037); settings: cited from earlier work
[2] = biological target: T1, ALK3 (BMPRIa) ECD (Homo sapiens, UniProt P36894); assay: SPR
T1 chain: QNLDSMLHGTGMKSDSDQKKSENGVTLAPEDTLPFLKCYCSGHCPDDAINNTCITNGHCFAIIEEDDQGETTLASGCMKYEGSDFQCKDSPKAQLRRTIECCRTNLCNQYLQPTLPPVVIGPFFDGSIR

ActRII ECD (Homo sapiens), sequence (P27037 20-135): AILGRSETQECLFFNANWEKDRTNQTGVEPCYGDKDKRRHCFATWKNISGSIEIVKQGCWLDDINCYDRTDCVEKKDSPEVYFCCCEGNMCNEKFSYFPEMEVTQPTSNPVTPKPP

Molecule: Activin A (from UniProt P08476)
Kd [1]: 0.2 nM

Kd [2]: 5 nM
B1: BMP2 (protein)
chain: QAKHKQRKRLKSSCKRHPLYVDFSDVGWNDWIVAPPGYHAFYCHGECPFPLADHLNSTNHAIVQTLVNSVNSKIPKACCVPTELSAISMLYLDENEKVVLKNYQDMVVEGCGCR
